# ± gives the standard deviation of the averaged measurements.
# Test system: Saccharomyces cerevisiae
# Assay: protein stability index of tFT-peptide fusion (C-terminal peptide) (PSI (0-1 scale)); higher = more stable (slower turnover)
# Conditions: genetic background: wild type; temperature: 30 C
# Experimental: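 Multiplexed protein stability (MPS) profiling in S. cerevisiae. Random 12-aa peptides (tFT-X12 library) are fused to the C-terminus of a sfGFP-mCherry tandem fluorescent timer, after mCherry and a GGGS linker. Cells are FACS-sorted into 8 mCherry/sfGFP bins and deep-sequenced. The protein stability index (PSI) is the read-weighted bin average, scaled from 0 (unstable) to 1 (stable). Only peptides with >10 reads are reported; cells were grown at 30 °C in SC-His with glucose.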
# 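Also: PSI is a weighted mean of sequencing reads over stability bins, variants kept only with over 10 reads, mCherry proximal and sfGFP distal, peptide attached via GGGS linker.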
row,Sequence,protein stability index
1,GRETGGGKSRRK,0.687 ± 0.013
2,PGVRGVKPVGVS,0.675 ± 0.092
3,LVVCWGCGLGVL,0.71 ± 0.033
4,LREETKREDDKQ,0.814 ± 0.061
5,PPSLPPLFLRAP,0.667 ± 0.0091
6,YVARRRPHPTGP,0.778 ± 0.17
7,GCENSRRSWRPD,0.609 ± 0.028
8,CVGGFLEGIRLG,0.711 ± 0.041
9,AIDGVREDTSVE,0.704 ± 0.18
10,IGKLDYVCWRVL,0.602 ± 0.029
11,TRERRQAAGGGT,0.665 ± 0.055
12,WGGYSLKFRTRR,0.705 ± 0.0025
13,PWDGFGPYAPYP,0.657 ± 0.081
14,PIGVFFVSGCVG,0.606 ± 0.014
15,PCPIGGRPCRVG,0.7275 ± 0.0037
16,PPRQLPFLAPSP,0.709 ± 0.046
17,GKCLEGCCLVWG,0.686 ± 0.008
18,PPPPLPFSPPDP,0.681 ± 0.044
19,AFPHDYCRFFLP,0.612 ± 0.048
20,PPPAFRLPLPPP,0.727 ± 0.072
21,LRMHFPPHPSSL,0.691 ± 0.067
22,RSPPAPRFLPAP,0.652 ± 0.049
23,VPSSVLIPRPLF,0.72 ± 0.081
24,LFPSPFVASFPP,0.765 ± 0.055
25,EVKDDSKVVVYV,0.666 ± 0.022

row,Sequence,protein stability index
1,KDKKKENKNNGE,0.6787 ± 0.0036
2,LWVESRFVQTFL,0.6663 ± 0.0013
3,WSFGRWGGAGAR,0.629 ± 0.044
4,VGRARRKGGGVG,0.6384 ± 0.0024
5,KIIGVRLKFDRS,0.761 ± 0.14
6,APEAHYRGCPPH,0.681 ± 0.018
7,TCLWVCAWGFGG,0.716 ± 0.011
8,FSCEVSFAGLIV,0.6 ± 0.012
9,DMSVVCDRVLFD,0.733 ± 0.034
10,TGHFSTTPPRPH,0.714 ± 0.077
11,NPYKREKKKNKK,0.787 ± 0.14
12,APPPAYCPPPPP,0.713 ± 0.022
13,QRPSRAQGKSYE,0.766 ± 0.014
14,GPVLILLSNNEM,0.731 ± 0.061
15,HYSLSHLRIVLD,0.645 ± 0.011
16,PLLPPLPPRPPP,0.633 ± 0.03
17,SDIHSSMTSGSF,0.669 ± 0.014
18,KKKKRQNIQNKK,0.692 ± 0.054
19,TVRIGKYTGNGV,0.738 ± 0.017
20,GFLGLLASFFVL,0.604 ± 0.022
21,NGISQWMGIGGQ,0.667 ± 0.011
22,KLRETQIHQGKT,0.698 ± 0.021
23,EGGILHKKFTKS,0.696 ± 0.025
24,EYAVLLFPHHPG,0.623 ± 0.041
25,HLPSLLRPPFLL,0.7038 ± 0.0018

row,Sequence,protein stability index
1,IKKKKKKKKKRD,0.652 ± 0.016
2,RFGPPPPPPSTL,0.71 ± 0.035
3,GQRGGRGKENSD,0.629 ± 0.04
4,GRRLSGWGAWVV,0.724 ± 0.063
5,ILCPGLYQFLVF,0.529 ± 0.038
6,KKRYYNKKINEK,0.699 ± 0.046
7,SIIATHNNNSIW,0.694 ± 0.014
8,AVAYMAHLPITR,0.69 ± 0.019
9,SLPPRPCPSHLH,0.786 ± 0.081
10,SLSPARKDSSLP,0.683 ± 0.15
11,HKDVRGRSLSRM,0.7183 ± 0.0024
12,LPPGIPLRSSPP,0.683 ± 0.022
13,ITRLSPPSSVRL,0.7 ± 0.039
14,ASSVVGLEERVR,0.728 ± 0.049
15,PPLVPPPLRASP,0.684 ± 0.037
16,HNRSFLIPFFPF,0.671 ± 0.085
17,HHAHRLPTLATS,0.693 ± 0.074
18,QQRKGTKDNGRE,0.707 ± 0.095
19,PPRPRVLPYPPL,0.746 ± 0.028
20,FSSARSPLLSRL,0.705 ± 0.041
21,RNNKMYKYQGNL,0.662 ± 0.083
22,VKLEEKNTINKV,0.668 ± 0.1
23,KKKNKKEDKRKK,0.6942 ± 0.0031
24,FASPPPLPLPPH,0.694 ± 0.02
25,DSSCLVWYRCGC,0.719 ± 0.083

row,Sequence,protein stability index
1,LTCRASNGIQAA,0.677 ± 0.021
2,PLVFSTSLCVSE,0.666 ± 0.0093
3,LFSCLHCLFSCQ,0.616 ± 0.091
4,APCLLNTLRPSP,0.686 ± 0.033
5,PTPPVPPPRTLL,0.667 ± 0.055
6,VSPGLFRSPPHY,0.664 ± 0.011
7,ADMTRSRYMGRS,0.692 ± 0.033
8,ISAPLPTLLSVL,0.559 ± 0.041
9,SARGRTRTADPS,0.677 ± 0.048
10,PPPLPPSIPLPL,0.743 ± 0.031
11,KSSEIKEKKTKK,0.7151 ± 0.0011
12,PPGGSRTEGRRT,0.688 ± 0.049
13,FSFFPLLARYFF,0.499 ± 0.0052
14,YEKWIKKCNKEE,0.689 ± 0.068
15,LPSKSTVALGPL,0.633 ± 0.046
16,PALAPLRPLPPV,0.669 ± 0.0073
17,VGGLAFSTSSIW,0.809 ± 0.11
18,LLLFPSSFIFFY,0.629 ± 0.055
19,RQQRKIYTDKQD,0.754 ± 0.0057
20,VYASMFRAAWPF,0.746 ± 0.076
21,TRLVRQLNNNLE,0.667 ± 0.013
22,QGIKRPSSNKSK,0.731 ± 0.13
23,SPSPPLAPPSPS,0.671 ± 0.0073
24,TARIIAHPQTRI,0.661 ± 0.032
25,QKNKNTEKINTK,0.663 ± 0.018

row,Sequence,protein stability index
1,IAFSINAFCWRG,0.552 ± 0.055
2,APRLIALPPPTA,0.711 ± 0.11
3,SSLEGMRSGLCR,0.69 ± 0.045
4,VSRGIFSGRGGV,0.736 ± 0.018
5,SNNKSIRKGVSI,0.79002 ± 6.2e-05
6,GSWMSGLWQTPV,0.722 ± 0.065
7,SPPPPTPPLSPP,0.669 ± 0.0051
8,GGGGGGPSGGSG,0.701 ± 0.079
9,AGGAAIVERAMK,0.6857 ± 0.003
10,ALHPPSPPPPAP,0.7313 ± 0.0027
11,HFVAPLSPRGSL,0.633 ± 0.038
12,ERCLRYRTVVDW,0.632 ± 0.063
13,KALQRKCRKRHK,0.673 ± 0.039
14,VVGDGVWCLSVG,0.721 ± 0.046
15,RGGGQVLGVRVG,0.667 ± 0.089
16,VSVVVGLLFVGF,0.5 ± 0.065
17,VPPSYDLPLFPF,0.632 ± 0.013
18,RLPPPPPSPFPS,0.778 ± 0.056
19,GYRSSWRALRVG,0.564 ± 0.076
20,LSLLPPPPPPSP,0.688 ± 0.011
21,SPPTTHPPSSHG,0.7486 ± 0.0062
22,FFCLVPLALPRF,0.649 ± 0.019
23,AVFSWVTAGQCD,0.684 ± 0.027
24,GVDGVLGGWGCG,0.786 ± 0.1
25,MNRTDPSRDEKP,0.804 ± 0.094

row,Sequence,protein stability index
1,QESKRKDMKERN,0.75 ± 0.049
2,LVQTREKIELVS,0.643 ± 0.027
3,PWVNLFPCQINI,0.639 ± 0.02
4,TTACLLERFTRV,0.664 ± 0.028
5,MNNYWKNSTKIK,0.737 ± 0.025
6,LLVMRRHRFLRL,0.624 ± 0.051
7,EWRWPTELNRKG,0.75 ± 0.051
8,LYPEELQATAVY,0.5892 ± 0.00086
9,IKKKKKEKGDST,0.713 ± 0.082
10,ESYRTYNSIQVY,0.518 ± 0.015
11,GEAFLVRRSRNR,0.722 ± 0.082
12,IHQQEVKSRICT,0.592 ± 0.031
13,RACSLWVSVVQP,0.67873 ± 2.3e-05
14,WGEKTRKVQGCG,0.695 ± 0.066
15,FNNTSFALRSQA,0.741 ± 0.029
16,PSLFFLPPPPSP,0.695 ± 0.0096
17,RLFFSRSVRSFF,0.529 ± 0.017
18,KSSNIINQKRIT,0.66 ± 0.056
19,FAHRVVCFCVFS,0.505 ± 0.038
20,GALYGARCNFEL,0.72017 ± 0.00015
21,QGVGDILARVQG,0.697 ± 0.048
22,WPRVCPFSLYDA,0.723 ± 0.012
23,KHIIPSAYTPEG,0.661 ± 0.023
24,KVCVLSPDSCGL,0.741 ± 0.033
25,RVLGGGVLGVLV,0.711 ± 0.0099

row,Sequence,protein stability index
1,PPLPPPPPPVPA,0.681 ± 0.036
2,GLLGVGDFRTEF,0.638 ± 0.048
3,LSSPPAPPPPPR,0.677 ± 0.13
4,VSGCVMIYGRTV,0.724 ± 0.027
5,CSWLVEWVLSFS,0.5417 ± 0.0041
6,SHTRPRPPLHLP,0.68 ± 0.038
7,EVDRRRSVITLP,0.668 ± 0.033
8,QTDRPPPVSPPR,0.671 ± 0.047
9,FRSFGYSGSMLA,0.6902 ± 0.0013
10,VFAWFSGGARLT,0.717 ± 0.0076
11,PPPAPLSPLSPR,0.6777 ± 0.0016
12,GGGGGECCFLEG,0.753 ± 0.081
13,RSSARPQNRPLP,0.733 ± 0.035
14,GKRKKRRKRRRT,0.664 ± 0.043
15,CLPFSCFLLTPR,0.692 ± 0.014
16,IERRCGRCMCFM,0.783 ± 0.1
17,SPPSSFPVFTLL,0.728 ± 0.05
18,MARIASAQTSLT,0.688 ± 0.016
19,KTQKKPNNRKNI,0.682 ± 0.04
20,NCSSNNRQSENI,0.644 ± 0.017
21,PPPPPAIPRRRT,0.678 ± 0.033
22,RLLAGLPLGGGN,0.656 ± 0.051
23,FHSSDLCGPVTS,0.67 ± 0.025
24,SGWRGVVGRGGR,0.625 ± 0.027
25,GHRMMWLFGVPA,0.59 ± 0.035

row,Sequence,protein stability index
1,TYQRTHKTATQF,0.681 ± 0.073
2,VGRGWSSGGGGD,0.682 ± 0.023
3,VVAFSLLSGFLV,0.636 ± 0.04
4,HPTDVAISPRPS,0.678 ± 0.023
5,PAHSTEVVPRVL,0.717 ± 0.018
6,LGGVRWNPGCRG,0.661 ± 0.047
7,WGGGVLRRRVGA,0.752 ± 0.055
8,EPASLTVFEGTS,0.587 ± 0.022
9,LAWALGESSPIG,0.737 ± 0.044
10,GTRQLGRTEPGE,0.695 ± 0.038
11,NSSEIGQNADTA,0.672 ± 0.025
12,TKEFKKTNTTGY,0.7406 ± 0.0039
13,PPVPPPHASPAP,0.709 ± 0.05
14,MTIMPSPLGVVH,0.514 ± 0.055
15,SLLQSLPSPPPP,0.639 ± 0.011
16,PLGQGRRRPPDA,0.732 ± 0.1
17,RYIKSRMLIIER,0.56 ± 0.049
18,KVLTTISRAINK,0.604 ± 0.012
19,NGTGGASSLAFG,0.689 ± 0.052
20,CSDISASTVSRL,0.715 ± 0.039
21,CCVGVGTRLGFA,0.646 ± 0.082
